System: ABP1
Experiment: DHFR-PCA on solid medium, bait ABP1 (Fig. 1B)
Type: cell-based, Saccharomyces cerevisiae
Conditions: bait ABP1, label = prey; for medrep (log2 median colony size normalized to plate background, PCA score): 2-4 replicates; for Ratio (SH3-deleted/WT medrep): only significant differences showed, PPIs completely lost have a ratio of 0.1 and the gained PPIs 2.5
From the text: Supplement 41467_2021_21873_MOESM8_ESM.xlsx, sheet "Fig1B" | column: medsize; medrep; Ratio; Score

B1: YNL094W (protein, UniProt P53933 1-587, looked up)
Phosphatidate phosphatase APP1: MNSQGYDESSSSTAATSGPTSGDPRMGKKQRFMNLIRTTKDVYIPNLTSSISQKTMDGIRSTTNSFEGYNDLPMELPHNTTITYFPTYTTTNLVDPDGLSAPRKDFETTVRCAVSYPGNPTSRRNRWLLSLCKQYLRTGTAEADVAPVVPPHLEEDSGDLNDSQSSIESSLSSKSENRYSHMGIQEEDVLNERIQGFLSKKVPNTPVVVDLLPKDKLRGDTASFFGTTDSYGNLLIKAETDFLPSKINITLDTPIEGHADPISETFPANYVSPYGIGLISDIDDTIKHTGVTGDRRSMFRNVFIHDVQSWVIDGVPLWYKTLHDVADVDFFYVSNSPIQTFTLLKQYICANFPPGPIFLKQYSGNFFSTIMTSSANRKIQPIANILKDFPKKKFILVGDSGEHDLEAYTTTALQFPNQILAIYIRCCSNSMSDVPSHDEEVMNEVNNIIELQQRPMQMTKSTVRTRRRPPPPPIPSTQKPSLTEEQTESIRMSRRNKDENNAKRVAPPPLPNRQLPNLDANTYYVPSSQNDYGMYGAFMDKKADEWKRRVMDSIQKLSNQDTTLMFFSDPALSLEDSIRRIREKYSN
- medrep (log2 median colony size normalized to plate background, PCA score): 1.857
- Ratio (SH3-deleted/WT medrep): 0.1

B2: YBR130C (protein, UniProt P38272 1-425, looked up)
SWI5-dependent HO expression …: MSDQDNTQTSSSKLAPHHNIFMANLESSPTKDRNTSSQNASSSRVIESLHDQIDMLTKTNLQLTTQSQNLLSKLELAQSKESKLLENLNLLKNENENLNSIFERKNKKLKELEKDYSELSNRYNEQKEKMDQLSKLAKNSSAIEQSCSEKLQNMEVNYNSLLESQNLYRDHYSDEISKLNEKIGLLELELSNQNLNYGSDTSSNSDIELNLNKFNDSVKDLKSLETEKDSKLSKIITHSLDELNLQSWLNLYQTNENLISTFAEKMDLKDVLKRNDEKISNKGAVVQTLKKNVQTQVESNNADALSSNNAQDMLPIKMVKLRKTPNTNDSSSNGNSSNNKRRSFYTASPLLSSGSIPKSASPVLPGVKRTASVRKPSSSSSKTNVTHNNDPSTSPTISVPPGVTRTVSSTHKKKGNSMVVHGAQS
- medrep (log2 median colony size normalized to plate background, PCA score): 2.63

B3: YOR284W (protein, UniProt Q12134 1-243, looked up)
Protein HUA2: MQQTKFGKMYLDHDSVVEYSEDEIVEADRITLGYKKRLSMIENQMRHLLEDFSLDVQQIEPILADLQKYYDAFLQLLQKRNKSLQCKRSTHQPVPSPMNSQTSTNAKVNLSGKLMKFQLNSVQKFDEENILRILQNKIEFEHYFQIDKGKKQKVLLLAVYQCLNGPTRLHKVLNIEGIIHNNSIRTILGKQVSSSKWTVFLYDVKLVLLAHRQDVPNLETSKMIVRYGDLFPCALYFKDHTAY
- medrep (log2 median colony size normalized to plate background, PCA score): 3.262
- Ratio (SH3-deleted/WT medrep): 0.1

B4: YNL287W (protein, UniProt P32074 1-935, looked up)
Coatomer subunit gamma: MSAHTYKKFENSTSGDLPDKMTIYQDCMNTFNESPVNSKRCRLLISRLLRLLAQGETFPQNEATALFFSISKLFQHQNDPLRQAVYLAIKELSGISEDVLMATSSIMKDVQNGSDLIKPDAIRSLTYVLDESTAFSAERLLKSAVVSRHPSISSAALCTSYHLLPISEVTIRRFTNETQEAVLDLKQFPNQHGNSEYYPNSTYISQYHALGLLYQLKKTDKMALLKLVRHFSENNSMKNQLAKVELVKIVNDLIYRDPQLFSQFRPLLSDWLSNKFESVQLETAKLITSFATRNSRLVAPELYAAAISALQSLLTVPRVSSRFAALRILNRISMVSPEKIVVCNPELESLINDSNRNISTYAITTLLKTGTSKNISSLISTITNFIHDVSDDFKIIIIDAVRTLSLNFPQEWKSILNFLIDVLKNSEGGFKFKNSIVEALIDIVSFVPQSKELALENLCDFIEDCEFNEILVRILHLLGKEGPSAPNPSLYVRHIYNRVVLENSIIRSAAVVALSKFALTKNDPTLYESIISLLKRIANDKDDEVRDRATIALEFIDSARNKDDVIAQNLIESKYFYDIPSLESKLSSYISSNTDSFATAFDVNQVRKFTEDEMKAINLKRKQEQIFNQKSETTLDTTPEAESVPEKRADANSFAGPNLDDHQEDLLATKYADELLSIEQIKPFGQLVNSSRAISLTEPEAEFVVRGVKHLFKDNVVLQFNITNTLTDIALDNVSVVCTPEISDEAELEELFTLQVDRLLPSEEAACYVAFKKLDEIVMEGFLNNLTFTTKEINPDTNEPFDGDEGFQDEYEIDSIFLNAGDYVKSSFTGNFSATFDELPCEEVAVFNIQEDLSIQEVVDKIILNSSCLPVESTQFAPSDSNSHTLKLFGKSALTGSKVALQIKMIKSSKGLALKVHGKGEDSLLCSDLVNGLMQ
- medrep (log2 median colony size normalized to plate background, PCA score): 2.55
- Ratio (SH3-deleted/WT medrep): 1.797

B5: YAR042W (protein, UniProt P35845 1-1188, looked up)
Oxysterol-binding protein …: MEQPDLSSVAISKPLLKLKLLDALRQGSFPNLQDLLKKQFQPLDDPNVQQVLHLMLHYAVQVAPMAVIKEIVHHWVSTTNTTFLNIHLDLNERDSNGNTPLHIAAYQSRGDIVAFLLDQPTINDCVLNNSHLQAIEMCKNLNIAQMMQVKRSTYVAETAQEFRTAFNNRDFGHLESILSSPRNAELLDINGMDPETGDTVLHEFVKKRDVIMCRWLLEHGADPFKRDRKGKLPIELVRKVNENDTATNTKIAIDIELKKLLERATREQSVIDVTNNNLHEAPTYKGYLKKWTNFAQGYKLRWFILSSDGKLSYYIDQADTKNACRGSLNMSSCSLHLDSSEKLKFEIIGGNNGVIRWHLKGNHPIETNRWVWAIQGAIRYAKDREILLHNGPYSPSLALSHGLSSKVSNKENLHATSKRLTKSPHLSKSTLTQNDHDNDDDSTNNNNNKSNNDYDDNNNNNNNDDDDYDDDDESRPLIEPLPLISSRSQSLSEITPGPHSRKSTVSSTRAADIPSDDEGYSEDDSDDDGNSSYTMENGGENDGDEDLNAIYGPYIQKLHMLQRSISIELASLNELLQDKQQHDEYWNTVNTSIETVSEFFDKLNRLTSQREKRMIAQMTKQRDVNNVWIQSVKDLEMELVDKDEKLVALDKERKNLKKMLQKKLNNQPQVETEANEESDDANSMIKGSQESTNTLEEIVKFIEATKESDEDSDADEFFDAEEAASDKKANDSEDLTTNKETPANAKPQEEAPEDESLIVISSPQVEKKNQLLKEGSFVGYEDPVRTKLALDEDNRPKIGLWSVLKSMVGQDLTKLTLPVSFNEPTSLLQRVSEDIEYSHILDQAATFEDSSLRMLYVAAFTASMYASTTNRVSKPFNPLLGETFEYARTDGQYRFFTEQVSHHPPISATWTESPKWDFYGECNVDSSFNGRTFAVQHLGLWYITIRPDHNISVPEETYSWKKPNNTVIGILMGKPQVDNSGDVKVTNHTTGDYCMLHYKAHGWTSAGAYEVRGEVFNKDDKKLWVLGGHWNDSIYGKKVTARGGELTLDRIKTANSATGGPKLDGSKFLIWKANERPSVPFNLTSFALTLNALPPHLIPYLAPTDSRLRPDQRAMENGEYDKAAAEKHRVEVKQRAAKKEREQKGEEYRPKWFVQEEHPVTKSLYWKFNGEYWNKRKNHDFKDCADIF
- medrep (log2 median colony size normalized to plate background, PCA score): 1.62
- Ratio (SH3-deleted/WT medrep): 2.5

B6: YDL160C (protein, UniProt P39517 1-506, looked up)
ATP-dependent RNA helicase …: MGSINNNFNTNNNSNTDLDRDWKTALNIPKKDTRPQTDDVLNTKGNTFEDFYLKRELLMGIFEAGFEKPSPIQEEAIPVAITGRDILARAKNGTGKTAAFVIPTLEKVKPKLNKIQALIMVPTRELALQTSQVVRTLGKHCGISCMVTTGGTNLRDDILRLNETVHILVGTPGRVLDLASRKVADLSDCSLFIMDEADKMLSRDFKTIIEQILSFLPPTHQSLLFSATFPLTVKEFMVKHLHKPYEINLMEELTLKGITQYYAFVEERQKLHCLNTLFSKLQINQAIIFCNSTNRVELLAKKITDLGYSCYYSHARMKQQERNKVFHEFRQGKVRTLVCSDLLTRGIDIQAVNVVINFDFPKTAETYLHRIGRSGRFGHLGLAINLINWNDRFNLYKIEQELGTEIAAIPATIDKSLYVAENDETVPVPFPIEQQSYHQQAIPQQQLPSQQQFAIPPQQHHPQFMVPPSHQQQQAYPPPQMPSQQGYPPQQEHFMAMPPGQSQPQY
- medrep (log2 median colony size normalized to plate background, PCA score): 1.807
- Ratio (SH3-deleted/WT medrep): 2.5

From article PMC7954794, “Protein context shapes the specificity of SH3 domain-mediated interactions in vivo” (Nature Communications, 2021)
